Results reported in the DeepSol protein solubility set.

assay: soluble on expression in E. coli; label from the status in PepcDB or PDB records

Sequence | soluble on expression in E. coli
MNLVGIVGTNSERSTNRKLLRFMAEHFAPQAAIEVLEIKDLPAFDEPENKTAPAAVTAFSKKIAAADGVIIATPEYNHTIPAPLGSALEWIAYTSRVLVNKPVMIVGCSLGALGTSRAQAHLRQILDAPELKARVMPGTEFFLGHSEHVLDDDFNLNNPEKVAELEEHFTEFQDFVIVTNQIVKQADTDRKKAFVWEAGELEHHHHHH | soluble
MNNLIKAINELKKEKNAIILGHYYQKGEIQDIADYVGDSLALAQLAAKTEADIIVMCGVHFMGETAKVLCPDKKVLVPDMEAGCSLADSCPADQFAQFVKEHPGHTVISYVNTTAAVKAVTDVVVTSTNARQIVESFPKDEKIIFGPDRNLGNYINSVTNRNMLLWDGACHVHEQFSVEKIVELKTQHPEALVLAHPECKSTVLKLADVVGSTAALLKYAVNHPENTYIVATESGILHEMQKKCPQTTFIPAPPNDSTCGCNECSFMRLNTLEKLYECLKNESPEITVDPEIAEKAVRPIQRMLEISAKLGL | not soluble
MNNNHYTYRVLWSQEDEEYVGLCAEFPSLSWLDAQAEKALKGIMDLVSEVVEDMQHNGEEVPVPLSHGKYSGKFQLRIPPELHRKLAIQAAENGVSLNRYISSKL | not soluble
MNNSAEYFIKSLNMTAHPEGGYFKESFISPSKLAPNTLHINEERLLWTSIYFLLRTGEVSNFHRLKSDEMWYFHAGESLTIYMISPNGELIEKQLGLNIEKGETPQVLVPKDYIFGSAMNNEGFSLVGCMVAPGFDFKDFELFEREDLLEKYPKYKEVIEKLTRLEHHHHHH | not soluble
MNNYTIKDITRASGGFAMLAVDQREAMRLMFAAAGAKTPVADSVLTDFKVNAAKILSPYASAVLLDQQFCYRQAVEQNAVAKSCAMIVAADDFIPGNGIPVDNVVLDKKINAQAVKRDGAKALKLLVLWRSDEDAQQRLNMVKEFNELCHSNGLLSIIEPVVRPPRCGDKFDREQAIIDAAKELGDSGADLYKVEMPLYGKGARSDLLTASQRLNGHINMPWVILSSGVDEKLFPRAVRVAMEAGASGFLAGRAVWSSVIGLPDTELMLRDVSAPKLQRLGEIVDEMMAKRR | soluble
MNPLERKVKQEAEEDGYSSFDEFPAGAIRIPYEELMAKVRAKKAEAEAAQDLVNENSFDQFVAAPPAPPVQKPAVEPSPSCSPETVAVQKFVTEFMQAAGGSRELRIIKDSQETKIVWKTSPAKPKAPPVEDDPTDPTDSQVSTVSSIIPVSSPRGKRRIVVSSDKDSDGDETPTEDNVNNDDQDVTPKKNRKPPVEVVTPSPAKRLRGLNLRSAHSSSDSESDFQDTQCEDSQDSDYFPDTQEQRDRPADFRIPKNAAYDPLDLSYN | not soluble
MNPNHNEGLLELYTQAISLEALKDAEQFLENSLLGKDAQVERLLAQVLIEEQQIETNRKKIAQLRIEKEELEFDCANSDLKSLEQMQAERDELQRKCQPGQHTKSNHKSSEQLLRMKKETDALRAYMKKISQFED | not soluble
MNQEFFMLSQAMVEHLNEQINLEFFSSNLYLQMSAWCEDKGFDGAAEFLRAHAVEEMQHMQRLFTYVSETGALPILGAIAAPRHDFASLGEVFRETYQHEQKITQQINKLAHVAFTSQDYSTFNFLQWYVAEQHEEEKLFKGILDKLELVGEDGKALFFIDKDLAALAKKGSSSVMDAPAE | not soluble
MNQILNKLQHIKPIEIIIVADDRMSAIQSIPTFVECNVVVIEEKNKWKAPVHGAKVANGDVVLFLDGEDVIFSVELERFIEPLLKKEQDVILNNIDSVCFEKMRVEWPSIAMVYRKIVNDVLGRMDLKYDSMLSMPYAITKKAIKDIGYDILQNPILSQVTLIEKGWPLHSSSAITNTSLNNITSNNTSFYKNELTKLEVCEIKENVKALESWLQRKDDRGNYTDGGRKREVIEQLKKQKNYSLFHKGWGMNSSIYNGKQLSIIIPAQNEEATIKEVILEARKIEPKEIIVVINGSTDQTEAIAKQLGATVIVYEEALGHDVGRAIGAQEATGDILLFIDADFAIPAKDLHPLTKAVVDGVDIALNDLNLNLRFPLYIVNLYKYMLNIACNRKDLGVGSTIAVPHAISRKCLEGIGWDTLHTSCVAQVKAILEGYKVECVHFVDVMKPNRIRPQEHFATIGHPPAVLRITGDHLEGLSYLLKHRDFKDLF | not soluble
MNQQTVNVIGAGLAGSEAAWQLAKRGIQVKLYEMRPVKQTPAHHTDKFAELVCSNSLRSNTLANAVGVLKEEMRALDSAIIAAADECSVPAGGALAVDRHEFAASVTNRVKNHPNVTVINEEVTEIPEGPTIIATGPLTSESLSAQLKELTGEDYLYFYDAAAPIVEKDSLDMDKVYLKSRYDKGEAAYLNCPMTEEEFDRFHEALTSAETVPLKEFEKEIFFEGCMPIEVMAKRGKKTMLFGPMKPVGLEHPVTGKRPYAVVQLRQDDAAGTLYNIVGFQTHLKWGDQKEVLKLIPGLENVEIVRYGVMHRNTFINSPSLLKPTYQFKNRSDLFFAGQMTGVEGYVESAASGLVAGINAAKLVLGEELVIFPQETAIGSMAHYITTTNQKNFQPMNANFGLLKELPVKIKNKKERNEQYANRAIETIQTISKTILEHHHHHH | soluble
MNQRILSTLGFDKVKQQLLQFIVTAQGTNEVSELLPIADENKIQSWLNETQDGLKVQRLRGGIPIPKLENIQPHMKRIEIGADLNGIELAQVGRVLSTTSELTRFFDELSENEVDLEHHHHHH | not soluble
MNQTLETGTTTVGITLKDAVIMATERRVTMENFIMHKNGKKLFQIDTYTGMTIAGLVGDAQVLVRYMKAELELYRLQRRVNMPIEAVATLLSNMLNQVKYMPYMVQLLVGGIDTAPHVFSIDAAGGSVEDIYASTGSGSPFVYGVLESQYSEKMTVDEGVDLVIRAISAAKQRDSASGGMIDVAVITRKDGYVQLPTDQIESRIRKLGLILHHHHHH | soluble
MNQVEMTEFPVGKPQEALYGVASTPDGALWFTLAKGNAIGRLSPDGAVSRFPLPHTDGQPTTITCGPDGRPWFTLSSANAIGRLAPDGALRMFELPRPASRPFGIAGGHDGCLWFAEMAGDRIGRITIDGDIEEYDLPVKGGYPSCMAAGRDGLMWFTLNQAGAVGSISATAAPRIFPLGAADAAPVGIASDAQGALWIAQAGNGAIVRFDAGGRITEFPLHSRAARPHAIAADAAGNLWFTEWGANRIGRISEAGDLAGYELAAPGSEPHGIAIDPHGCVWAALETGRLVRLQASPRDLEHHHHHH | soluble
MNRARDWLEQARHNLRHAQGSLGLGDYAWACFAAQQAAEAALKGLHLARGQVAWGHSILDLLADLPEDVDVPEDLVEAAKVLDKYYIPTRYPDAHPAGPAARHYTRLEAEEALDLAQKILAFVEEKL | soluble
MNRIGFIGAGNMGTAMIRGLAQANLVKREEIIVGGRNLEKLKPLEAEFTGLQITTDTEKLVEQADIIILAVKPYTIPEILTSVKEKLTPDKIIISVAAGVTIQDLEELTSAKTKIVRVMPNTPALVGEAMSSVSPNTNVTSEELKEVTAIFTSFGEAEVVSENLMDAVIGVSGSSPAYVYMFIEALADGAVLSGMPRDKAYKFAAQAVLGAAKTVLETGEHPGKLKDMVTSPGGTTIEAVKSLENDGFRSAVINAVQAAAKKNSSMLEHHHHHH | soluble
MNRKAFLACVLMCVILTGCETAKKISEVIKNPDIQVGSLKEQPSEITVTLLTEPDTNTNAEGESAAVDVQLVYLTDDSKLQAADYDQIASTPLPDVLGKNYIDHQDFNLLPDTIKTLPPIKLDEKTQFIGVVAYFSDDQATEWKQIETVEGTGHHYRLLVHVRQSSIEMKKEDE | soluble
MNSASFLQSRLISRSFLVRRSLKRYSGLAKPYTFQQPTIYALSTPANQTSAIAIIRISGTHAKYIYNRLVDSSTVPPIRKAILRNIYSPSSCSVKPHDQKESKILLDTSLLLYFQAPYSFTGEDVLELHVHGGKAVVNSILKAIGSLHDRSSGKDIRFALPGDFSRRAFQNGKFDLTQLEGIKDLIDSETESQRRSALSSFNGDNKILFENWRETIIENMAQLTAIIDFADDNSQEIQNTDEIFHNVEKNIICLRDQIVTFMQKVEKSTILQNGIKLVLLGAPNVGKSSLVNSLTNDDISIVSDIPGTTRDSIDAMINVNGYKVIICDTAGIREKSSDKIEMLGIDRAKKKSVQSDLCLFIVDPTDLSKLLPEDILAHLSSKTFGNKRIIIVVNKSDLVSDDEMTKVLNKLQTRLGSKYPILSVSCKTKEGIESLISTLTSNFESLSQSSADASPVIVSKRVSEILKNDVLYGLEEFFKSKDFHNDIVLATENLRYASDGIAKITGQAIGIEEILDSVFSKFCIGK | not soluble
MNSGDNIIKKKSFTFAVRIVNLYKVLSSEIKEFVMSKQLLRSGTSVGANIREALNAQSKPGFIHKLAISQKECDETGYTNNVEFESMNTDAIELLKIVRSIIMTSKKNIIHNSLEHHHHHH | not soluble
MNSHDGSNFSNKFSAHKDVVEDLLRKDTVGLVTFQDFRARREYLERCAVAEAACQNASRRAEELETKKKRVKRANLSRLSFGDSLEDQEENSVEFAKITRFASSKKANGVGFNTSGQDIVKEPDVFSPKEEGFFGKQNRKIGMDPGVDTSFLPDRDREQEERLERERLKQQWLSEQERVKNEEIDIIYSIWDGRGQRKLLSCKKGTTIAKFLSIVQQKVSTLKHCKVEDLMFIKEDMIIPHHLSFYDLISMKARGKNGSLFCFDVHEDIRIRNDASVEKDDSHAAKVVERRWYERNKHIYPASMWEVFDVSKNYGRVQKDFFGN | soluble
MNSTQSRRVGLYGTGRAAAQLVGAIEASPHTLTTAIVFFDEQAGQDIGTLTGGRATGITATTDLEGAIRSGDFDVLAYAGLKGEVLHRAMELCADSGVDLVHACFVHPRVKLDPEMYSRLQKRAEETGARIVGTGMLPGFWLDVLPALLSSALPAPVSIIGESRSDITAWGRGVLADEMGLGTLADGQPGPVGGVLHESAEMIADILGLTGYESKVYGGYVTAHAATEVAGIQISPGDRVGFDEAATVVHDGRERVRIAWKGLPKGSFEGYERSLTVTAIGGDGSECTLSITPALDPYPGTAARIVHAVGALGALPGGQHTPVQLGI | not soluble
MNSTSIYILVALHPIITLTNMPNTAMEATELLKEIQKHDSQQAFRSLYDMYYDRFFRIAFYYLQRDEWAQEVILDVFTTLWNHRKSQLIPDDFNKYSYILIRNAALNYLEKEQRREASPLENMPEISSSNLSPEEQMMNEELFNIYENSLNELPERCRTIFIKVREEKQSYASVAEELNISPKTVDAQLQKAVTRLKEKINNYFRNRR | not soluble
MNTESSPFVFNVGTLVRGSAVPASVQQTGPSPVRIGPAMIAIPENGDVTVNATITPLGDALMVDADVSAELSGECVRCLQHMAPRAQFHVNEVFALTEDFITGDDGDGEDDDVTVITGDTVDILQAVIDEAGMSLPFNPQCEGGCVQSDSDVPEPDGIAGETELVDPRWAGLEKFL | not soluble
MNTKQSNSHSTPSTFEGAQIRQGKASQCKTLMVQGTTSDAGKTTLVAGLCRVFADLQVKVAPFKPQNMALNSAVTPCGGEIGRAQALQAKAARLALDVDFNPILLKPNSDTGAQVIVHGKALMHRSSSNMEASEYQDYKKVAMQAVLSSHQRLTQQYDLVVVEGAGSPAEINLRKGDIANMGFAEAVDCPVLIIADIDKGGVFAQLVGTLMLLSQSEQDRVVGFVINRFRGDIKLLESGLTWLEERTNKPVLGVLPYLHGLDISSEDALVTQQALV | not soluble
